The target of assay [1] is T1, MAGEA1 KVL peptide, threonine substitution at position 3 (L) peptide on HLA-A*02:01 (human).
T1 peptide: KVTEYVIKV
Put plainly: cytokine release.

The target of assay [2] is T2, MAGEA1 KVL peptide, threonine substitution at position 5 (Y) peptide on HLA-A*02:01 (human).
T2 peptide: KVLETVIKV
Put plainly: cytokine release.

Assay [3] deals with T3, ASTN1 peptide on HLA-A*02:01 (human).
T3 peptide: KLYGLDWAEL
The experiment in a line: cytokine release.

Assay [4] deals with T4, MAGEA1 peptide on HLA-A*02:04 (human).
T4 peptide: KVLEYVIKV
Put plainly: cytokine release.

The target in assay [5] is T5, MAGEA1 peptide on HLA-A*02:16 (human).
T5 peptide: KVLEYVIKV
Put plainly: cytokine release.

The target of assay [6] is T6, MAGEA1 peptide on HLA-A*02:17 (human).
T6 peptide: KVLEYVIKV
Put plainly: cytokine release.

The target in assay [7] is T7, MAGEA1 KVL peptide, threonine substitution at position 1 (K) peptide on HLA-A*02:01 (human).
T7 peptide: TVLEYVIKV
Put plainly: cytokine release.

In assay [8] the target is T8, MAGEA1 peptide on HLA-A*02:01 (human).
T8 peptide: KVLEYVIKV
Put plainly: multimer staining.

B1: TCR T15.8-4.3-83 (TCR, V domains shown)
Valpha: AQKVTQAQTEISVVEKEDVTLDCVYETRDTTYYLFWYKQPPSGELVFLIRRNSFDEQNEISGRYSWNFQKSTSSFNFTITASQVVDSAVYFCALSEVASGGSYIPTFGRGTSLIVHP
Vbeta: SQTIHQWPATLVQPVGSPLSLECTVEGTSNPNLYWYRQAAGRGLQLLFYSVGIGQISSEVPQNLSASRPQDRQFILSSKKLLLSDSGFYLCAWSGSGGNQPQHFGDGTRLSIL
On to B1, for which the binding result in assay [1] is “no recognition”; in assay [2], “no recognition”; in assay [3], “no recognition”; in assay [4] it was “recognises”; in assay [5] it was “recognises”; in assay [6] it was “recognises”. Further, the binding result in assay [7] is given as “no recognition”; in assay [8], “recognises”.

(Values after patent US20230037552A1 (published 2023).)
